Assay results from paper PMC7176292.

Key:
[1] = biological target: human μ-opioid receptor (μOR) M153V, with HA signal sequence at the N terminus and LgBiT at the C terminus (modified pfastbac1) (human) (UniProt P35372); experiment: split reporter (BiFC, NanoBiT); NanoBiT on Sf9 membranes co-expressing μOR-LgBiT, Gαi1, Gβ1-SmBiT and Gγ2, in PBS pH 7.4; dose-response of fentanyl, 15 min at room temperature, luminescence; normalized to DAMGO
[2] = biological target: human μ-opioid receptor (μOR) M153A, with HA signal sequence at the N terminus and LgBiT at the C terminus (modified pfastbac1) (human) (UniProt P35372); experiment: as above
[3] = biological target: human μ-opioid receptor (μOR) M153F, with HA signal sequence at the N terminus and LgBiT at the C terminus (modified pfastbac1) (human) (UniProt P35372); experiment: as above
[4] = biological target: human μ-opioid receptor (μOR) M153I, with HA signal sequence at the N terminus and LgBiT at the C terminus (modified pfastbac1) (human) (UniProt P35372); experiment: as above
[5] = biological target: human μ-opioid receptor (μOR) M153L, with HA signal sequence at the N terminus and LgBiT at the C terminus (modified pfastbac1) (human) (UniProt P35372); experiment: as above
[6] = biological target: human μ-opioid receptor (μOR) M153F, with HA signal sequence at the N terminus and LgBiT at the C terminus (modified pfastbac1) (human) (UniProt P35372); experiment: split reporter (BiFC, NanoBiT); NanoBiT on Sf9 membranes co-expressing μOR-LgBiT, Gαi1, Gβ1-SmBiT and Gγ2, in PBS pH 7.4; dose-response of DAMGO, 15 min at room temperature, luminescence; normalized to DAMGO
[7] = biological target: human μ-opioid receptor (μOR) M153I, with HA signal sequence at the N terminus and LgBiT at the C terminus (modified pfastbac1) (human) (UniProt P35372); experiment: as above
[8] = biological target: human μ-opioid receptor (μOR) M153L, with HA signal sequence at the N terminus and LgBiT at the C terminus (modified pfastbac1) (human) (UniProt P35372); experiment: as above

Gi protein complex (Gαi1, Gβ1 with SmBiT at the C terminus, Gγ2), sequence (P63096 whole entry): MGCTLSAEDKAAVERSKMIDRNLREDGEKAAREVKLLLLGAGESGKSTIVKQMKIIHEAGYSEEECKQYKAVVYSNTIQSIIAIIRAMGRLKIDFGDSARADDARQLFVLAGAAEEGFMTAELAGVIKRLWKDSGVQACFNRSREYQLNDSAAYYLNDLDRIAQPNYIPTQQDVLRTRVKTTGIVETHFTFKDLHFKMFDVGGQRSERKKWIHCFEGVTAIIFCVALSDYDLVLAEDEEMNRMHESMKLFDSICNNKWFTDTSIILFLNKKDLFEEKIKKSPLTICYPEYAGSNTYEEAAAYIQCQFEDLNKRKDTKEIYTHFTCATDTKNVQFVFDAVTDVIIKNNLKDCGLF
Gi protein complex (Gαi1, Gβ1 with SmBiT at the C terminus, Gγ2), sequence (P62873 whole entry): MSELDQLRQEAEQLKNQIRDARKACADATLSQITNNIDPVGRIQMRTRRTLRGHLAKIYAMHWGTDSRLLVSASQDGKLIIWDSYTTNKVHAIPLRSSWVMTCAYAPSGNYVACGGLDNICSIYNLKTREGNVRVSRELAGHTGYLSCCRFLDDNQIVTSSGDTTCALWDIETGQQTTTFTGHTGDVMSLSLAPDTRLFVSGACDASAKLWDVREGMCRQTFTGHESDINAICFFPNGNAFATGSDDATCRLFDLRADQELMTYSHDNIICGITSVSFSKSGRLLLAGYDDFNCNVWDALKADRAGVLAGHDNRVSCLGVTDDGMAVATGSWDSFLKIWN
Gi protein complex (Gαi1, Gβ1 with SmBiT at the C terminus, Gγ2), sequence (P59768 whole entry): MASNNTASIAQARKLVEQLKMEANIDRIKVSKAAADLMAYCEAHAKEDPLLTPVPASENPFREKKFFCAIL

Gi protein complex (Gαi1, Gβ1 with SmBiT at the C terminus, Gγ2) (from UniProt P63096 1-354; P62873 1-340; P59768 1-71)
maximal Gi coupling (normalized to DAMGO) [1]: < 55% | maximal Gi coupling (normalized to DAMGO) [2]: < 55% | maximal Gi coupling (normalized to DAMGO) [3]: < 55% | maximal Gi coupling (normalized to DAMGO) [4]: < 55% | maximal Gi coupling (normalized to DAMGO) [5]: < 55% | maximal Gi coupling (normalized to DAMGO) [6]: 100% | maximal Gi coupling (normalized to DAMGO) [7]: 100% | maximal Gi coupling (normalized to DAMGO) [8]: 100%
